According to patent US20240317847A1 (Bayer, published 2024):
Substitutions are numbered along the chain they refer to.

T1: human IL2Ra (Peprotech, Germany, #200-02RC) (human, UniProt P01589 22-240)
T1 construct: Coated on the ELISA plate; also called hIL2Ra; IL-2 receptor alpha
T1 sequence (looked up): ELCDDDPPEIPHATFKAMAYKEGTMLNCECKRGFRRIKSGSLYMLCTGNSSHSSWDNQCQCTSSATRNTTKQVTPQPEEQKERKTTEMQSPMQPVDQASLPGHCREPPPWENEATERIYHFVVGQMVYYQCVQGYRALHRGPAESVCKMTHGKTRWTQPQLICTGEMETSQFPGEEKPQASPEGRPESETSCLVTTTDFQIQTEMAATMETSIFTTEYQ

T2: murine IL-11 (Invigate, e.g., lot #C210819-09) (mouse, UniProt P47873 22-199)
T2 construct: Bought protein; biotinylated where captured on streptavidin plates; also called mIL-11; mIL11
T2 sequence: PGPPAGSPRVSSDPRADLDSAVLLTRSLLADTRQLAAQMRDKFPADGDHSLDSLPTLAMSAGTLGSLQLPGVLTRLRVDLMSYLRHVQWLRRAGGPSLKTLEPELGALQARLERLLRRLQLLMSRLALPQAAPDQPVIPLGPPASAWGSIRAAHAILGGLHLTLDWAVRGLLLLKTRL

B1: TPP-18087 (antibody, mouse IgG1, V domains shown)
VH: EVQLLESGGGLVQPGGSLRLSCAASGFTFSHYDMNWLRQAPGKGLEWVGVISYDGSNKFYADFVKGRFTISRDNSKNTLYLQMNSLRAEDTAVYYCARTPGSHFDYWGQGTLVTVSS
VL: QSVLTQPPSASGTPGQRVTISCSGSSSNIGNNAVNWYQQLPGTAPKLLIYYDDLLPSGVPDRFSGSKSGTSASLAISGLRSEDEADYYCSAWDDSLNGVVFGGGTKLTVLG
notes: mIgG1, Lambda
B2: TPP-19528 (antibody, mouse IgG1, V domains shown)
VH: EVQLLESGGGLVQPGGSLRLSCAASGFTFSIYAMSWVRQAPGKGLEWVSSISDTGDRTYYADSVKGRFTISRDNSKNTLYLQMNSLRAEDTAVYYCARSNWGSLDYWGQGTLVTVSS
VL: B1 VL with N31S, A33Y, N35Y, S90A, N97S, V99R
notes: mIgG1, Lambda

Tests used:
[1] = molecular target: T1, human IL2Ra (Peprotech, Germany, …); experiment: direct binding ELISA on coated IL2Ra
[2] = molecular target: T2, murine IL-11 (Invigate, e.g., lot …); experiment: Di-complex ELISA: biotinylated murine IL-11 on streptavidin plate, antibody titrated against 2 nM canine IL11RA-human-Fc (competitor)
Method: In the Di-complex ELISA format anti IL-11 antibodies are tested for the ability to interfere with the formation of complexes consisting of immobilized murine IL-11 (Invigate, e.g., lot #C210819-09) or human IL-11 (Invigate, e.g., lot #C121021-19), and murine IL11RA-Fc fusion proteins or canine IL11RA-human-Fc fusion protein (FIG. 17a, b).
The assay is performed using streptavidin coated microtiter plates (Greiner bio-one, #781997). In a first step, 10 nM biotinylated mouse IL-11 (Invigate, Germany, e.g., lot #C210819-09) or human IL-11 (Invigate, Germany, e.g., lot #C121021-19) is coated in 25 μl PBS on the plate at 4° C. overnight. Next day, the plate is washed three times with 50 μl PBST and then blocked with 50 μl SmartBlock (Candor, #113125) for one hour at room temperature (RT). After additional three washes with PBST, 25 μl of a mixture of the murine anti IL-11 antibody and recombinant canine IL11RA-Fc fusion protein (Sino Biological, #70078-D02H) in PBS-T, 10% Smartblock are added simultaneously to the plate and incubated for one hour at RT. […] After three additional washes with PBS-T, 25 μl anti-human-POD (Sigma, #A0170) in PBS-T, 10% Smartblock is added and incubated for 1 hour at RT. After a final three washes with PBS-T, 25 μl AmplexRed (Fisher Scientific, A12222), 1/1000 in PBS, 0,003% H₂O₂, is added as substrate and incubated for 15 min at RT in the dark. Then, the fluorescence is measured with a plate reader at 535/595 nm. Signals from dose responses were used to calculate IC50 values (GraphPad Prism). Efficacy was calculated as [(signal measured at lowest antibody concentration−signal measured at the highest antibody concentration)×100] divided by (signal measured at lowest antibody concentration−signal measured in the absence of IL11Ra).

Row | binding result [1] | Efficacy (%) [2] | IC50 [2] | Binder
1 | no binding (tested: 3.3E-7 [M] antibody) | 13.4% |  | B1
2 | no binding (tested: 3.3E-7 [M] antibody) | 79% | 24 nM | B2
